T1: cynomolgus monkey PD1 His tag (monomeric) (cynomolgus monkey, UniProt Q15116 25-170 (human entry), limits assumed)
T1 construct: Soluble monomeric analyte; whole entry named; also called monomeric cyno PD1; not shown: His tag
T1 chain: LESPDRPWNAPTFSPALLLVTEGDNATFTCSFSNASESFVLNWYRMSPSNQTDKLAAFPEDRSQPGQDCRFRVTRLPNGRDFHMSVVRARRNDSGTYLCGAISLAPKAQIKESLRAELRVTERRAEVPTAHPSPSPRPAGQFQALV

T2: recombinant ectodomain of human FZD5 (human, UniProt Q13467 27-167, limits assumed)
T2 construct: whole entry named
T2 sequence: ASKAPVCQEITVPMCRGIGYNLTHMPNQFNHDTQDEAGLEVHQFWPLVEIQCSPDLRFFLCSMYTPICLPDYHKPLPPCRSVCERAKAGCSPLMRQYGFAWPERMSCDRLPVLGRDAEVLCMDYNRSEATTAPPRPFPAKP

T3: recombinant ectodomain of rhesus VEGFR2 (rhesus)
T3 construct: whole entry named
T3 chain: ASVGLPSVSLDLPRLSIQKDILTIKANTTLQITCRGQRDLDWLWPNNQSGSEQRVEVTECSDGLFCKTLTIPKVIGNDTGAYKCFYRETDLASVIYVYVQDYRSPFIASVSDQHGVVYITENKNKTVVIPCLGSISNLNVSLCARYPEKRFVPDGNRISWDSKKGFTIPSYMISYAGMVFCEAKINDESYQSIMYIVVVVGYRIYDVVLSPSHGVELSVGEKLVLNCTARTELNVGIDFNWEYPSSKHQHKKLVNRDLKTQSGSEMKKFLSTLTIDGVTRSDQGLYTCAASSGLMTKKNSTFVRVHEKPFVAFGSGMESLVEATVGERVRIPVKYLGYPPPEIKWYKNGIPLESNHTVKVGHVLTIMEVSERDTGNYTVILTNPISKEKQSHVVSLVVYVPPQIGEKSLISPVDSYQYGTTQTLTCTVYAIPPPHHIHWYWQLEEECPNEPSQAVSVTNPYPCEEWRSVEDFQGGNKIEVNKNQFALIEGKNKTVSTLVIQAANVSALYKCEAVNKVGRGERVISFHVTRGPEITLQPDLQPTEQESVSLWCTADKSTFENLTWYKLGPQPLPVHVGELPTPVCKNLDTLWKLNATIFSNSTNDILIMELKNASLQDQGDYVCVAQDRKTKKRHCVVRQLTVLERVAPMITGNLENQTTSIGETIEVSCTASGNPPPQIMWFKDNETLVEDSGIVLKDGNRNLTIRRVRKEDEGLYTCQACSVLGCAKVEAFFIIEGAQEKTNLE

T4: cyno PD1 expressed on CHO-K1 cells (cynomolgus monkey, UniProt Q15116 25-288 (human entry))
T4 construct: also called cyno PD1+ CHO cells
T4 chain: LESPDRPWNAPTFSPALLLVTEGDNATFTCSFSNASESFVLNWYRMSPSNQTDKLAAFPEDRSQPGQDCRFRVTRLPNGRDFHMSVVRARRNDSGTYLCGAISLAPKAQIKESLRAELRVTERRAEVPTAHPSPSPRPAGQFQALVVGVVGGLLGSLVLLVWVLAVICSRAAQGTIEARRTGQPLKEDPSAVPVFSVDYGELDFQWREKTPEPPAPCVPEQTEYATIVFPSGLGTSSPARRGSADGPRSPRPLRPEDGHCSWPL


How the values were obtained:
[1] = biological target: T5, biotinylated human PD1-His/AviTag (human, UniProt Q15116 25-170, limits assumed, biotinylated); test: Alphascreen competition vs IgG1-Mab005 (humanized)
T5 construct: Alphascreen antigen; whole entry named; also called biotinylated monomeric human PD1; not shown: His/AviTag
Experimental: The AlphaScreen assay (Perkin Elmer) was performed in a 25 μl final volume in 384-well white microtiter plates (Greiner). The reaction buffer contained 1×PBS pH 7.3 (Oxoid, Cat. nr. BRO014G) and 0.05% (v/v) Tween® 20 (Sigma, Cat. nr. P9416). Purified IgG samples were titrated in three fold serial dilutions starting at 500 nM final concentration and incubated with biotinylated human PD1-His/AviTag at 0.6 nM final concentration for 20 minutes at room temperature. […] Followed by addition of the Streptavidin Donor beads at 20 μg/ml (final concentration) and incubation for 30 minutes at room temperature. The emission of light was measured in the EnVision multilabel plate reader (Perkin Elmer) and analysed using the EnVision manager software. Values were reported as Counts Per Second (CPS) and corrected for crosstalk.

[2] = biological target: T6, human PD1 His tagged (monomeric) (human, UniProt Q15116 25-170, limits assumed); test: SPR (Biacore), IgG captured, monomeric PD1-His analyte
T6 construct: Soluble monomeric analyte; whole entry named; also called monomeric human PD1; not shown: His tag
Experimental: (§1) Affinity (KD) of purified IgGs was determined via SPR with antigen in-solution on a Biacore 3000 (GE). A mouse anti-human antibody (CH1 specific) was immobilized on a CM5 Sensor Chip to a level of 2000 RU in acetate buffer at pH 4.5 using amine coupling following the Wizard instructions for two channels. One channel was used for background signal correction. The standard running buffer HBS-EP pH 7.4 was used. Regeneration was performed with a single injection of 10 μl of 10 mM Glycine at pH 1.5 at 20 μl/minute. IgG samples were injected for 2 minutes at 50 nM at 30 μl/min followed by and off-rate of 60 seconds. […] The obtained sensorgrams were analysed using the Biacore 3000 evaluation (BIAevaluation) software. The KD was calculated by simultaneous fitting of the association and dissociation phases to a 1:1 Langmuir binding model.
(§2) Biacore analyses of binding affinity was performed for all IgGs to solution-phase, monomeric human and cyno PD1 proteins.

[3] = biological target: T1, cynomolgus monkey PD1 His tag …; test: as above
Experimental: as §1, §2

[4] = biological target: T2, recombinant ectodomain of human FZD5; test: direct ELISA
BSA protein = biological target: T7, BSA protein (UniProt P02769 25-607); test: direct ELISA
T7 construct: Negative-control coat of the ELISA

[5] = biological target: T3, recombinant ectodomain of rhesus VEGFR2; test: direct ELISA
[6] = biological target: T4, cyno PD1 expressed on CHO-K1 cells; test: flow cytometry, PD1 CHO-K1 cells
Experimental: (§3) Purified IgGs were tested in FACs for binding to human and cyno PD1 expressed on CHO-K1 stable cell lines and CHO-K1 wild-type cells. […] Binding of IgGs was detected with a mouse anti-human IgG conjugated to FITC. Results were analyzed by examining the Mean Fluorescence Intensity (MFI) of 10000 cells per sample in the BL-1 channel detector of a flow cytometer (Attune™ NxT Acoustic Focusing Cytometer, Invitrogen/ThermoFisher Scientific).
(§4) Antibodies to PD1 were analysed for concentration-dependent binding at the cell surface via flow cytometry. Initial analyses were performed on CHO cells stably-transfected with human or cyno PD1.

[7] = biological target: T8, human PD1 expressed on cells (human, UniProt Q15116 25-288); test: flow cytometry, PD1 CHO-K1 cells
T8 construct: also called human PD1+ CHO cells; PD1-transfected HEK293 cells
Experimental: as §3, §4

T6 sequence (Q15116 25-170 limits assumed): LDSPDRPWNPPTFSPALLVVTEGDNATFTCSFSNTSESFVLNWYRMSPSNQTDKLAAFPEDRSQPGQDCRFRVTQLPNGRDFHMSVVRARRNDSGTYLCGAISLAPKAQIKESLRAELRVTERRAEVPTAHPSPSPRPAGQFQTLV
T5 sequence (Q15116 25-170 limits assumed): as above
T8 sequence (Q15116 25-288 limits assumed): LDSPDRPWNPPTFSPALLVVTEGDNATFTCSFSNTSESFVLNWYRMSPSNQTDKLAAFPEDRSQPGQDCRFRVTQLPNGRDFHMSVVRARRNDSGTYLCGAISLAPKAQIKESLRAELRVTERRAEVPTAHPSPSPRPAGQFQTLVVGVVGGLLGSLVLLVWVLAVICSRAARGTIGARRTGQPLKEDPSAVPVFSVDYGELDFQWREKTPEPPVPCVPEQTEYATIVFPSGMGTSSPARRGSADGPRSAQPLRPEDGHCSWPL
T7 sequence (P02769 25-607 limits assumed): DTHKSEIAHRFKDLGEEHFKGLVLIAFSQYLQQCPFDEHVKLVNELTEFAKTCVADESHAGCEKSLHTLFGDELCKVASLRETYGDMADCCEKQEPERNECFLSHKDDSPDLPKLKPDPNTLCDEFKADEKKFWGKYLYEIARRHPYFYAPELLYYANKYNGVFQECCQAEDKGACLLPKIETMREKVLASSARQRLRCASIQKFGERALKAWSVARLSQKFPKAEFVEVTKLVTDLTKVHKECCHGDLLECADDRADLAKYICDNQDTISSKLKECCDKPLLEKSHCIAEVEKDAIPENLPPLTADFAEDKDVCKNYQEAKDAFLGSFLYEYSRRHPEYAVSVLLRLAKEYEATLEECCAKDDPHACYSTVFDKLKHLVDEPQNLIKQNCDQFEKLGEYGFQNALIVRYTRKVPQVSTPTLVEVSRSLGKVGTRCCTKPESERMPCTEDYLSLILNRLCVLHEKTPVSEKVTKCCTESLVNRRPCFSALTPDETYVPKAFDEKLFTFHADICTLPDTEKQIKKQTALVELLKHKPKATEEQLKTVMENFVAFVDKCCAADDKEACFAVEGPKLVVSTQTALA

IC50 [1] [nM] | Kd [2] [nM] | koff [2] [s⁻¹] | kon [2] [M⁻¹ s⁻¹] | Kd [3] [nM] | koff [3] [s⁻¹] | kon [3] [M⁻¹ s⁻¹] | binding result [4] | binding result (BSA protein) | binding result [5] | EC50 [6] [nM] | EC50 [7] [nM] | Binder
2.36 | 1.47 | 0.00028 | 190000 | 3.4 | 0.00052 | 150000 | no binding | no binding | no binding | 2.03 | 1.55 | IgG1-08 (antibody, V domains shown, Designer; human IgG1null + Ckappa; also called Antibody IgG1-08; MAB08) VH: EVQLVESGGGLVQPGGSLRLSCAASGFTFSSYLMSWVRQAPGKGLEWVATISGGGSEKYYVDSVKGRFTISRDNAKNSLYLQMNSLRAEDTAVYYCARQLYGFDYWGQGTLVTVSS VL: not shown
1.66 | 1.91 | 0.00029 | 150000 | 2.8 | 0.00033 | 120000 | no binding | no binding | no binding | 2.52 | 1.66 | IgG1-05 (antibody, V domains shown, Designer; human IgG1null + Ckappa; also called Antibody IgG1-05) VH: EVQLVESGGGLVQPGGSLRLSCAASGFTFSSYLMSWVRQAPGKGLEWVATISGGGSEKYYVDSVKGRFTISRDNAKNSLYLQMNSLRAEDTAVYYCARQVYYFDYWGQGTLVTVSS VL: not shown
2.63 | 1.3 | 0.00025 | 200000 | 4.9 | 0.00062 | 130000 | no binding | no binding | no binding | 1.56 | 1.78 | IgG1-06D02 (antibody, V domains shown, Library-derived; human IgG1null + Ckappa; also called Clone 06D02) VH: EVQLVESGGGLVQPGGSLRLSCAASGFTFSSYLMSWVRQAPGKGLEWVATISGGGSETYYVDSVKGRFTISRDNAKNSLYLQMNSLRAEDTAVYYCARQLYGFDYWGQGTLVTVSS VL: not shown

Reference: patent US20240124590A1 (ULTRAHUMAN EIGHT, published 2024)
